Data from a protein production outcome set (Wang et al. 2014).

Test: label from the status in PepcDB records

Sequence: MSVLPCFSLMCSLSLGEVKAVKIKPMLARLQSAMGRDDLIDQMVLLPEPQKGQTTQSINLIVGYDASPNSHTALDIACWIAHQTRLATNQQVTVQAVYVVEDSNTKNRSNILSFAKRLPTIELPPSETKKSSTSVITQPKLTGIKSYLQTDTLTPLQEADRIIWQARTLAEEWQGSFKSHLRFGCVSTELRKVAEFEAADILFLGCKSVYHPLIETLGYNFPCAVLGIPECIDE
- protein production: failed

Sequence: MSVPDNVYLIGTMNTADRSLAGLDIALRRRFDFVEMAPRPDKLTGVKVAEIDISAVLETMNRRIEVLLDREHRLGHAYFMSLENSNDLSRLSNIFRQQIIPLLQEYFFEDWQRIAWILNDHRKDERFRFIVPAPYSVDSLFGDTGQVAQDSKAWRMNEEAFHKPQSYLGLEHHHHHH
- protein production: not failed

Sequence: MSVQKAVKSSHYEAESNMEQDIVRKAWVFKPSGLNFIWGGDSRYWVIPNEDRTPAELKKVSWLEVTGSYDKIEPGKTYRIGFKISFTADATGWDQAPVFMSAKIGKKGRTIWKRIKSVNNNFDKLKGGTGPVNIPDETDGRFEIFVSPKVAINQDTKLQFGLYEVWTGKWKTGLLIYEAFVEEV
- protein production: failed

Sequence: MSVQLVKGVNLHVIPTEKYKTVRLLVRFNTRLNHETITKRTLLSSLMETNSLNYPNQVKLSERLAELYGASFGIGVSKKGNQHWFNISMNIVNDHYLQDSQVLAEAVDFLKEIIFAPNIQAGQFEAETFQREKENLKAYLESIVEDKQTYASLALQSVYFNQSEDQKIPSFGTVAALAEETAASLAAYYQKMLAEDQVDIFVLGDVNEAELVPLFKQLPFTPREEGKAAIFYNQPIRNVIEERTEREVLAQSKLNLAYNTDIYYGDSYYFALQVFNGIFGGFPHSKLFMNVREKEHLAYYASSSIDTFRGFMTVQTGIDGKNRNQVLRLISTELENIRLGKIRELEIEQTKAMLKNQYILALDNAGAWLEKEYLNELMPQTMLTAEEWIARINAVTIPEIQEVAKRLELQAIFFLEGETEND
- protein production: not failed

Sequence: MSVSIAYLAVLLIWSTTPLGIVWSSESINPSLAVLLRMLIALVLGALVIKIRNIHIPWHKQAVKLYSFSALGIFGGMLCSYLSAAYLSSGIISLVFGLSPVISALLAKKILSEPNISGMRKFSMAISLIGLAVVCSDNFTLADDGIYGIIFILMAVFFFSLSGVLVKSVSLAIHPLATTVGALSVATPLFLVSWLLLDGTLPIETWQAKSLWATLYLGVFGSLIGFYAYFTVLQKLSASNVTLITLITPVIALTLGAVLNGEVINDKLILGAFMVLLGLSIYHFGHLLPRLKKKRARS
- protein production: failed

Sequence: MSVTFSYLAETDYPVFTLGGSTADAARRLAASGCACAPVLDGERYLGMVHLSRLLEGRKGWPTVKEKLGEELLETVRSYRPGEQLFDNLISVAAAKCSVVPLADEDGRYEGVVSRKRILGFLAERI
- protein production: not failed

Sequence: MSVTFSYLAETDYPVFTLGGSTADAARRLAASGCACAPVLDGERYLGMVHLSRLLEGRKGWPTVKEKLGEELLETVRSYRPGEQLFDNLISVAAAKCSVVPLADEDGRYEGVVSRKRILGFLAERIHSGEGGLTMEIEVPPTGAKLSEIIETIEKNDASILSFTSWTTGEGRIIFFRVATHDFFRLVRNMENYGYLIRYHSAFPNAGYDELREKALEFIHYMDM
- protein production: not failed

Sequence: MSVTLVNNENNERYEFETIESTRGPKAVDFSKLFETTGFFSYDPGYSSTAGCQSKISYVNGKKGELYYRGHRIEDLVAKYKYVDVCKLLLTGELPKNQDESLEFELELRHRSFVHESLLNMFSAFPSNAHPMAKLSSGVSILSTLYSTHQNMHTEEDYQTMARRIVAKIPTLAAICYRNEVGAPIIYPDIARSYVENILFMLRGYPYSRLKHTTQGEVEITPLEVEAFDKILTLHADHSQNASSTTVRNVASTGVHPYAAISAGISALWGHLHGGANEKVLLQLEEIGDVKNVDKYIARVKDKNDNFKLMGFGHRVYKSYDPRAKILKGLKDELHQKGVKMDERLSEIAAKVEEIALKDEYFIERNLYPNVDFYSGTILRALKIPVRFFTPVFVIGRTVGWCAQLLEHVKSPQARITRPRQVYVGD
- protein production: failed

Sequence: MSVVPVADVLQGRVAVDQEVTVRGWVRTRRDSKAGISFLAVYDGSCFDPVQAVINNSLPNYNEEVLHLTTGCSVVVTGKVVASPGQGQSFEIQATKVEVAGWVEDPDTYPMAAKRHSIEYLREVAHLRPRTNLIGAVARVRHTLAQALHRFFDEQGFFWVSTPLITASDTEGAGEMFRVSTLDLENLPRNDQGRVDFDKDFFGKESFLTVSGQLNGETYACALSKIYTFGPTFRAENSNTSRHLAEFWMLEPEVAFADLEDNARLAEAMLKYVFNAVLEERADDMKFFAERVDKDAIARLERFVSTDFAQVDYTDAVAILERCGKTFENPVFWGVDLSSEHERYLAEEHFKAPVVVKNYPKEIKAFYMRLNEDGKTVAAMDVLAPGIGEIIGGSQREERLDVLDARMAEMGLNKEDYWWYRDLRRYGTVPHSGFGLGFERLIAYVTGVQNVRDVIPFPRTPRNASF
- protein production: failed

Sequence: MSVYLVALIGILILGLYILDLRKHKITTREIIMIGLSVAISYVLYMIPLVRYPQGGGITFFSMLPIMLLSLVYGRTVGVTGGLIFGLLKILNGAFIVHPVQFLLDYILSNMALGLAGSFGIDKKYKIFLGSLMAGSISTFVSIVSGVIFFGQYAPPGMNLWIYSIIYNTSSAGVESLLTAIVITIMPIKMLAKRMKPINNI
- protein production: failed

Sequence: MSWESINSKDLLSIPPSQNLSATRLLTSPDGSRYLLENSSDLCHLDESFSRLAGYGSSPDVGSRSVWASQALLRSGSVISCFLSCQQSLRQYIAKRKIERGRRLYEQNNQTEAVRTWRSALKGTCQREDCFQLLGYLYQAHMDWGKFREAIEFSHQQLGISEELDSPNMRAETYLNLSRAHASLGGLERSLSYARHSLYNECGTKCRSGLVHLTVARVYLEMGGFSRALEGLQGAYKIATAIGDPSLELQVYVALSELFGRLQDNDKSATYASKAYDLSRSLQLGDLNSCHHRAALLRMAVSLRKQGELGDAQDYCKEATKLSLISGDQATYTRSIRVMGDIYRNKMDMDRAFRQYEQAMGTSASLGDRMAQMEAMDGAARCLETLRLQNKICNCRPLEFNTRLLEVASSIGAKFLVRKIRCRLALIYRALGDEDQYNTHFRLANQTDAALGLNCGACGELLGLRPENLEALPCAHILHARCAYEILRRREKNAPRSCPACNKLISSRTHFCGSVPVESESTDRCVTAASTFNTNSLSVDGLLGINSDILLPSAAFCYVKNPALDTENSALLSPKVIYHSNLSLASLSMRASSLTIDSGQNVTSSV
- protein production: failed

Sequence: MSWLFSTLVFFLTLLTAGIALYLITARRYQSSNSVANSYDQWTEDGILEFYWGEHIHLGHYGSPPQRKDFLVAKSDFVHEMVRWGGLDKLPPGTTLLDVGCGIGGSSRILARDYGFAVTGITISPQQVQRAQELTPQELNAQFLVDDAMALSFPDNSFDVVWSIEAGPHMPDKAIFAKELMRVLKPGGIMVLADWNQRDDRQKPLNFWEKPVMQQLLDQWSHPAFSSIEGFSELLAATGLVEGEVITADWTKQTLPSWLDSIWQGIVRPEGLVRFGLSGFIKSLREVPTLLLMRLAFGTGLCRFGMFRALRADTVRSSAEQTSAIKVAQK
- protein production: failed

Sequence: MSWYRRTKLVFDSLRRNINPKILPRSHVTSRINNPIGSSNPSAKFSSISSREVGLRSWTSLGRNTNRIAYNPFLSQPKRYYYVDRYQVRHFKPRGPGRWFQNPRTVFTVVLVGSVGLITLIVGNTETIPYTKRTHFILLSKPMEKLLGETQFEQIKKTYQGKILPATHPESIRVRLIAKEVIDALQRGLSNERVWSDLGYASTESSLGGGSDKGVKEMEMAMSGEDTMTDMKWSKEDQVLDDQWIQKSRKKDSKAHAATSHLEGISWEVLVVNEPIVNAFCLPAGKIVVFTGLLNHFKSDAEVATVIGHEVGHAVARHVAEGITKNLWFAILQLVLYQFVMPDLVNTMSALFLRLPFSRKMEIEADYIGLLLLASAGYDPRVAPTVYEKLGKLGGDALGDYLSTHPSGKKRSKLLAQANVMEEALMIYREVQAGRTGVEGFL
- protein production: failed

Sequence: MSYGLIIVLMIILGIGLWHTKKYHRAVVNQVAHVWITKNAFEHTALGMAIVSPDCRFLKVNRAYGEITGYTRPELLKMAVKELTHPEDQEKDTPYLQEVFAGNIHSFTTVKRYIHKNGSTIWVRSTISAVRTERGNLEHHHHHH
- protein production: not failed

Sequence: MSYGLIIVLMIILGIGLWHTKKYHRAVVNQVAHVWITKNAFEHTALGMAIVSPDCRFLKVNRAYGEITGYTRPELLKMAVKELTHPEDQEKDTPYLQEVFAGNIHSFTTVKRYIHKNGSTIWVRSTISAVRTERGNLKYFVLEHHHHHH
- protein production: failed
